Results as given in publication PMC2700083, “A covalent peptide inhibitor of RGS4 identified in a focused one-bead, one compound library screen” (BMC Pharmacology, 2009).
Residue numbers refer to the chain shown, from its start.

Columns and labels:
Type in all cases: binding
[1] = target: T1, RGS4 C95A (Rattus norvegicus, UniProt P49799, C95A); assay: FCPIA, RGS4 cysteine mutant C95A; conditions: read-out: Gαo affinity
T1 construct: made in house
T1 sequence (P49799 52-205 C95A limits assumed): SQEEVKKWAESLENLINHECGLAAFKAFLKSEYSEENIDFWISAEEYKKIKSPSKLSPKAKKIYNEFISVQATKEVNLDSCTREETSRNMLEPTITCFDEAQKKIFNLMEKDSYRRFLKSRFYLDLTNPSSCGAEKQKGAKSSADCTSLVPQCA
Description: (§1) Figure 5 Dose curves of 5nd on various RGS4 cysteine mutants. Various concentrations of 5nd were tested for disruption of the RGS4-Gαo interaction for C95A (5 nM), or […], C71A (5nM) or C148A (5nM) (B), A95C in the -7C (5nM), or A132C in the -7C (5nM) (C), A71C in the -7C (5nM), or A148C in the -7C (5nM) (D) or the mutant with no cysteines in the domain (20 nM) or the C-terminus (20 nM) (E) in the FCPIA (mean ± S.E.M., n ≥ 3).
(§2) Proteins were expressed, purified and labeled as described previously. The mutagenesis was done using the "QuickChange Multi Site-Directed Mutagenesis Kit" from Stratagene according to the manufacturer's protocol. The construct of RGS4 used in these studies is a maltose binding protein (MBP-) fusion protein of the RGS4 sequence from which the amphipathic N-terminal helix has been removed (i.e. MBP-RGS4Δ51N). For simplicity in the text, this will be referred to as RGS4. All other RGS proteins were human sequences and were used as Mpb fusions: RGS7 RGS domain (aa: 305–453), RGS8 full length, RGS16 full length, and RGS19ΔC11 (amino acids 1–209). To cleave RGS4Δ51N from the MBP-His6 construct for MS analysis, MBP-His6-RGS4Δ51N was treated with 15% MBP-His6-TEV protease S219V [11] for 22 hours at 4°C and purified over a Ni-NTA column.
(§3) FCPIA was performed as previously published.

[2] = target: T2, RGS4 C148A (Rattus norvegicus, UniProt P49799, C148A); assay: FCPIA, RGS4 cysteine mutant C148A; conditions: read-out: Gαo affinity
T2 construct: made in house
Description: as §1, §2, §3

[3] = target: T3, RGS4 C71A (Rattus norvegicus, UniProt P49799, C71A); assay: FCPIA, RGS4 cysteine mutant C71A; conditions: read-out: Gαo affinity
T3 construct: made in house
T3 sequence (P49799 52-205 C71A limits assumed): T1 sequence (P49799 52-205 C95A limits assumed) with C20A, A44C
Description: as §1, §2, §3

[4] = target: T4, RGS4 C132A (Rattus norvegicus, UniProt P49799, C132A); assay: FCPIA, RGS4 cysteine mutant C132A; conditions: read-out: Gαo affinity
T4 construct: made in house
T4 sequence (P49799 52-205 C132A limits assumed): T1 sequence (P49799 52-205 C95A limits assumed) with A44C, C81A
Description: as §1, §2, §3

[5] = target: T5, RGS4 -7C (Rattus norvegicus, UniProt P49799, C132A/C148A/C183A/C197A/C204A/C71A/C95A); assay: FCPIA, RGS4 -7C mutant (all 7 cysteines removed); conditions: read-out: Gαo affinity
T5 construct: made in house
Description: (§4) Since 5nd forms an irreversible, DTT-sensitive bond with RGS, it was suspected that it binds covalently to a cysteine in the protein through a disulfide bridge. Indeed, removal of all 7 cysteines (termed the -7C mutant) from RGS4 greatly diminished 5nd activity (logIC50 of -3.24 ± 0.14 for -7C vs. -4.36 ± 0.02 for wild type) (Figure 5, Table 2).
as §1
(§5) Proteins were expressed, purified and labeled as described previously. The mutagenesis was done using the "QuickChange Multi Site-Directed Mutagenesis Kit" from Stratagene according to the manufacturer's protocol. The construct of RGS4 used in these studies is a maltose binding protein (MBP-) fusion protein of the RGS4 sequence from which the amphipathic N-terminal helix has been removed (i.e. MBP-RGS4Δ51N). For simplicity in the text, this will be referred to as RGS4. […]

[6] = target: T6, RGS4 A95C, -7C (Rattus norvegicus, UniProt P49799, C132A/C148A/C183A/C197A/C204A/C71A); assay: FCPIA, RGS4 A95C in the -7C; conditions: read-out: Gαo affinity
T6 construct: made in house
Description: as §1
(§6) The previous experiments tested which cysteines are necessary for inhibition by 5nd. In an alternative approach, we added cysteines back to the -7C mutant to determine which might be sufficient for 5nd activity. […] Furthermore, Cys132 is involved in the actions but this is clearly not sufficient to explain them. Thus it is concluded that 5nd is at least partially non-selective in its cysteine modification.
as §5

[7] = target: T7, RGS4 A148C, -7C (Rattus norvegicus, UniProt P49799, C132A/C183A/C197A/C204A/C71A/C95A); assay: FCPIA, RGS4 A148C in the -7C; conditions: read-out: Gαo affinity
T7 construct: made in house
T7 sequence (P49799 52-205 C71A/C95A/C132A/C183A/C197A/C204A): T1 sequence (P49799 52-205 C95A limits assumed) with C20A, C81A, C132A, C146A, C153A
Description: as §1, §6, §5

[8] = target: T8, RGS4 A71C, -7C (Rattus norvegicus, UniProt P49799, C132A/C148A/C183A/C197A/C204A/C95A); assay: FCPIA, RGS4 A71C in the -7C; conditions: read-out: Gαo affinity
T8 construct: made in house
Description: as §1, §6, §5

[9] = target: T9, RGS4 A132C, -7C (Rattus norvegicus, UniProt P49799, C148A/C183A/C197A/C204A/C71A/C95A); assay: FCPIA, RGS4 A132C in the -7C; conditions: read-out: Gαo affinity
T9 construct: made in house
Description: as §1, §6, §5

[10] = target: T10, RGS4 no Cys in RGS domain (Rattus norvegicus, UniProt P49799, C132A/C148A/C71A/C95A); assay: FCPIA, RGS4 mutant with no Cys in RGS domain; conditions: no Cys in RGS domain; read-out: Gαo affinity
T10 construct: made in house
Description: as §4, §1, §5

[11] = target: RGS4 no Cys in C-terminus; assay: FCPIA, RGS4 mutant with no Cys in C-terminus; conditions: read-out: Gαo affinity
Description: as §4, §1, §5

[12] = target: T11, RGS4 (Rattus norvegicus, UniProt P49799); assay: FCPIA (flow cytometry protein interaction assay), RGS4-Gαo interaction, wild type RGS4 (MBP-RGS4Δ51N); conditions: wild type RGS4Δ51N, calculated in the FCPIA; read-out: Gαo affinity
T11 construct: made in house
T11 sequence (P49799 52-205 limits assumed): T1 sequence (P49799 52-205 C95A limits assumed) with A44C

T8 sequence (P49799 52-205 C95A/C132A/C148A/C183A/C197A/C204A): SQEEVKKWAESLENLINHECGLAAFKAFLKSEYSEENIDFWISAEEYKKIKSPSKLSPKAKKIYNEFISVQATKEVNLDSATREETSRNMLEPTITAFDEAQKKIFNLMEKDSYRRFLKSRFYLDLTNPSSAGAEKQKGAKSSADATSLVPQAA
T2 sequence (P49799 52-205 C148A limits assumed): as the sequence (P49799 52-205 C95A/C132A/C148A/C183A/C197A/C204A) above, with A44C, A81C, A132C, A146C, A153C counted along it
T5 sequence (P49799 52-205 C71A/C95A/C132A/C148A/C183A/C197A/C204A): as the sequence (P49799 52-205 C95A/C132A/C148A/C183A/C197A/C204A) above, with C20A counted along it
T6 sequence (P49799 52-205 C71A/C132A/C148A/C183A/C197A/C204A): as the sequence (P49799 52-205 C95A/C132A/C148A/C183A/C197A/C204A) above, with C20A, A44C counted along it
T9 sequence (P49799 52-205 C71A/C95A/C148A/C183A/C197A/C204A): as the sequence (P49799 52-205 C95A/C132A/C148A/C183A/C197A/C204A) above, with C20A, A81C counted along it
T10 sequence (P49799 52-205 C71A/C95A/C132A/C148A limits assumed): as the sequence (P49799 52-205 C95A/C132A/C148A/C183A/C197A/C204A) above, with C20A, A132C, A146C, A153C counted along it

B1: Gαo: Alexa Fluor 532-labeled Gα subunit, binding partner of RGS proteins in the FCPIA (protein)
chain: MGCTLSAEERAALERSKAIEKNLKEDGISAAKDVKLLLLGAGESGKSTIVKQMKIIHEDGFSGEDVKQYKPVVYSNTIQSLAAIVRAMDTLGVEYGDKERKADSKMVCDVVSRMEDTEPFSAELLSAMMRLWGDSGIQECFNRSREYQLNDSAKYYLDSLDRIGAADYQPTEQDILRTRVKTTGIVETHFTFKNLHFRLFDVGGQRSERKKWIHCFEDVTAIIFCVALSGYDQVLHEDETTNRMHESLMLFDSICNNKFFIDTSIILFLNKKDLFGEKIKKSPLTICFPEYPGSNTYEDAAAYIQTQFESKNRSPNKEIYCHMTCATDTNNIQVVFDAVTDIIIANNLRGCGLY
modifications: Alexa Fluor 532 label (sites not given)
[1]
  Kd: 8.17 ± 1.5 nM
[2]
  Kd: 6.84 ± 1 nM
[3]
  Kd: 12.2 ± 1.8 nM
[4]
  Kd: 7.9 ± 3.1 nM
[5]
  Kd: 8.3 ± 1 nM
[6]
  Kd: 12 ± 2 nM
[7]
  Kd: 5.7 ± 0.2 nM
[8]
  Kd: 9.2 ± 2 nM
[9]
  Kd: 12.5 ± 1 nM
[10]
  Kd: 3.9 ± 0.8 nM
[11]
  Kd: 5 ± 0.7 nM
[12]
  Kd: 11.6 ± 1.4 nM
